From the supplement of paper PMC6379048

Tests used:
Test in all cases: Kd (EC50 corrected by depletion factor)
RPS28 = RPS28 (UniProt P62857)
Summary of the method: (§1)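 HEK293-FT lysate (2.5 mg protein/well) was treated with free RNA oligos (0 nM to 30 μM) for 1 h at 4°C, then with the same oligos on NHS-Sepharose beads for 30 min at 4°C. Bound proteins were quantified by label-free LC-MS/MS relative to the control. EC50 came from a four-parameter log-logistic fit, and Kd is EC50 times a protein-dependent depletion factor.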

MRPL43 = MRPL43 (UniProt Q8N983)
Summary of the method: as §1

SRSF6 = SRSF6 (UniProt Q13247)
Summary of the method: as §1

MRPL19 = MRPL19 (UniProt P49406)
Summary of the method: as §1

PIP5K1A = PIP5K1A (UniProt Q99755)
Summary of the method: as §1

CSNK2A1 = CSNK2A1 (UniProt P68400)
Summary of the method: as §1

U2AF1 = target: T1, U2AF1 (UniProt Q01081)
T1 sequence: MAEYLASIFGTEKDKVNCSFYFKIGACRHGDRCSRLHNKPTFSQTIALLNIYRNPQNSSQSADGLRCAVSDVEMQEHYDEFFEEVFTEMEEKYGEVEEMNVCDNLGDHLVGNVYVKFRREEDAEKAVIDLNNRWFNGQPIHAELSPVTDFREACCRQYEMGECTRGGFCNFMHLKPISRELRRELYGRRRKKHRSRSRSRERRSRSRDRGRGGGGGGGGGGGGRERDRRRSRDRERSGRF
Summary of the method: as §1

SF3B3 = target: T2, SF3B3 (UniProt Q15393)
T2 sequence: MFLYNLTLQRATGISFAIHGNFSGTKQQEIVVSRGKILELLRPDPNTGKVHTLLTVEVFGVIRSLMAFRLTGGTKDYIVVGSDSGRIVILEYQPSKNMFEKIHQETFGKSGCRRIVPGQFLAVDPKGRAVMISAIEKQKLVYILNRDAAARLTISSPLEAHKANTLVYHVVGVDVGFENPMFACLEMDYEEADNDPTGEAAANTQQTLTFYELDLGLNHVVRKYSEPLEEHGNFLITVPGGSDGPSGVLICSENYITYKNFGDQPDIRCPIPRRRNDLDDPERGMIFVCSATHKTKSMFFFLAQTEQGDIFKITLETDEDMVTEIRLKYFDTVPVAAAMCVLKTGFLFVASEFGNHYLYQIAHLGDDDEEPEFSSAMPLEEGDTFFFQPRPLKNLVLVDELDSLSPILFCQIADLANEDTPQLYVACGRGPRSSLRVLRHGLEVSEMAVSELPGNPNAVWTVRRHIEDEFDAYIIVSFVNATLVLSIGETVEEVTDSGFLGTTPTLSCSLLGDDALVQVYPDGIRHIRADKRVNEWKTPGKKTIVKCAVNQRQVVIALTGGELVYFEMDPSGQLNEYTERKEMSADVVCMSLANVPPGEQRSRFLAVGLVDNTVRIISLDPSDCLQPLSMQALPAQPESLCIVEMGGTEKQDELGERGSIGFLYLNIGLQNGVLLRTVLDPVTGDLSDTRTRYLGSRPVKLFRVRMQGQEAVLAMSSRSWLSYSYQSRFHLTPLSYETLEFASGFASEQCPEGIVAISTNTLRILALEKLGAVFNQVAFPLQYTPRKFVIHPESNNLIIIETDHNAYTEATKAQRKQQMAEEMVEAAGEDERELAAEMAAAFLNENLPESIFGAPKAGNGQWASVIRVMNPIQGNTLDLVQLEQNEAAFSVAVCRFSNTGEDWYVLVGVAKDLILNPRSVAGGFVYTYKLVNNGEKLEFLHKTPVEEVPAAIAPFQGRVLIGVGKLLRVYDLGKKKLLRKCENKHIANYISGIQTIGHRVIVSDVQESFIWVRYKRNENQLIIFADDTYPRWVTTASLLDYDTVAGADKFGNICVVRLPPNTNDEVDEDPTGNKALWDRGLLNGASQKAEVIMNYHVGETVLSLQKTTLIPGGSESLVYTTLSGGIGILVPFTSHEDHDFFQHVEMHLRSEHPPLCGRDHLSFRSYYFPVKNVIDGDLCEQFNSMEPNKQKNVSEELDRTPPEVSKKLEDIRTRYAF
Summary of the method: as §1

IFIT5 = target: T3, IFIT5 (UniProt Q13325)
T3 sequence: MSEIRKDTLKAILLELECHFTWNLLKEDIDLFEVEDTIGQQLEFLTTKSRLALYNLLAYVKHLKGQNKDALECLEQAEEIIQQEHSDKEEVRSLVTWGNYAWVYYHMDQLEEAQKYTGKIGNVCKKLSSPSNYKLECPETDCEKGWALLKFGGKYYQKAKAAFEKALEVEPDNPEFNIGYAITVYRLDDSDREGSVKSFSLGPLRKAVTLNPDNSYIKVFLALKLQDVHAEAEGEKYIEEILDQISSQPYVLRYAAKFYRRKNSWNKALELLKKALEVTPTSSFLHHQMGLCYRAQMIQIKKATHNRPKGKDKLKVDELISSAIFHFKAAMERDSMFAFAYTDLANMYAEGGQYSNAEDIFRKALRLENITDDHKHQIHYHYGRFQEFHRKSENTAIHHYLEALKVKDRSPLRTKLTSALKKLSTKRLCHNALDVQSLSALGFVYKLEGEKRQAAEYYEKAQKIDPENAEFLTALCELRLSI
Summary of the method: as §1

Chain of CSNK2A1 (P68400 whole entry, looked up): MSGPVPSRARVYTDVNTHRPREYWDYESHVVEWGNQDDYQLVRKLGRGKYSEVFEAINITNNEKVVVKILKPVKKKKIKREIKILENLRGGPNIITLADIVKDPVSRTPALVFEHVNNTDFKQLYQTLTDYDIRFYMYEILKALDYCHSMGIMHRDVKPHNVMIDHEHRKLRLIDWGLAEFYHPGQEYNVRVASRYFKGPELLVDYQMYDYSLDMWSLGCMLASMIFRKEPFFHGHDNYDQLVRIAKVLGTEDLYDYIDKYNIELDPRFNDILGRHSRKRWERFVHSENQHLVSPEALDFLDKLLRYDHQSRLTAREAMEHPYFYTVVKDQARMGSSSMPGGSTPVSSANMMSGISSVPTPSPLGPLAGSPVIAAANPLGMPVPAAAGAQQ
Chain of PIP5K1A (Q99755 whole entry): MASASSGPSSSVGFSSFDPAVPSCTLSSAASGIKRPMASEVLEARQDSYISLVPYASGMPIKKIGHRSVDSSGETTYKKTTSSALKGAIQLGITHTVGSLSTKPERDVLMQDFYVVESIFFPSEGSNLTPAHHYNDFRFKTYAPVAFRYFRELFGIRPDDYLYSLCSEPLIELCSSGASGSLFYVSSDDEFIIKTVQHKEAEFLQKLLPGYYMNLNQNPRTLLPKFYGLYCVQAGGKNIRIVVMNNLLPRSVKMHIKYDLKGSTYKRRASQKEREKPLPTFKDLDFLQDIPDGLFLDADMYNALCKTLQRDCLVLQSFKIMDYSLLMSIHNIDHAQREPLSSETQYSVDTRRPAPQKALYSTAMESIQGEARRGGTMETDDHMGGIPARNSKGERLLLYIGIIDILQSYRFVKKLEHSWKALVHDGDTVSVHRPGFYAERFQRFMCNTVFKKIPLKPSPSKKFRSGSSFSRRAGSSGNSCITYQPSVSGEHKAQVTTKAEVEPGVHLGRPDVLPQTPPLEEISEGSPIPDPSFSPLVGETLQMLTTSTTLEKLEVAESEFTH
Chain of SRSF6 (Q13247 whole entry, looked up): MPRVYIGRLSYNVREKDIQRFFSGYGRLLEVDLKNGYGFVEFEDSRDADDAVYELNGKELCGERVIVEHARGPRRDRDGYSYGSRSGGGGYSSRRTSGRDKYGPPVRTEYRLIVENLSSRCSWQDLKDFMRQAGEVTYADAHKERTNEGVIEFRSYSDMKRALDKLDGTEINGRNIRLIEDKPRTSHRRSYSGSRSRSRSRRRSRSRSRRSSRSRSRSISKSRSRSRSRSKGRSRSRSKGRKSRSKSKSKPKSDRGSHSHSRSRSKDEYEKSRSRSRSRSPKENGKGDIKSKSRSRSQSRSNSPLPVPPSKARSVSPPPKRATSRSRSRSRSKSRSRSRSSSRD

Sequence | Kd (RPS28) | Kd (MRPL43) | Kd (SRSF6) | Kd (MRPL19) | Kd (PIP5K1A) | Kd (CSNK2A1) | Kd (U2AF1) | Kd (SF3B3) | Kd (IFIT5)
CUGUCCU | 0.115 µM | 0.0404 µM | 0.287 µM | 0.0541 µM | – | – | – | – | –
AAUAAA | – | – | – | – | 0.467 µM | 0.0786 µM | 0.202 µM | 0.669 µM | 0.363 µM
